In the supplement of paper PMC10065799, “High-throughput profiling of sequence recognition by tyrosine kinases and SH2 domains using bacterial peptide display” (eLife, 2023):

molecular target: FGFR1 (UniProt P11362); experiment: phosphorylation enrichment, bacterial display (enrichment ratio); higher = better substrate or ligand; peptides without Tyr show the background
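Wherever phosphorylation enrichment, bacterial display is given: 11-residue human phosphosite peptides and single-mutation variants displayed on the E. coli surface, counted by deep sequencing, each peptide's frequency after selection divided by its frequency in the unselected input library; frequency after pTyr selection over input frequency; kinase dosed for 20-30% of maximal phosphorylation in three min.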

Chain of FGFR1 (P11362 whole entry, looked up): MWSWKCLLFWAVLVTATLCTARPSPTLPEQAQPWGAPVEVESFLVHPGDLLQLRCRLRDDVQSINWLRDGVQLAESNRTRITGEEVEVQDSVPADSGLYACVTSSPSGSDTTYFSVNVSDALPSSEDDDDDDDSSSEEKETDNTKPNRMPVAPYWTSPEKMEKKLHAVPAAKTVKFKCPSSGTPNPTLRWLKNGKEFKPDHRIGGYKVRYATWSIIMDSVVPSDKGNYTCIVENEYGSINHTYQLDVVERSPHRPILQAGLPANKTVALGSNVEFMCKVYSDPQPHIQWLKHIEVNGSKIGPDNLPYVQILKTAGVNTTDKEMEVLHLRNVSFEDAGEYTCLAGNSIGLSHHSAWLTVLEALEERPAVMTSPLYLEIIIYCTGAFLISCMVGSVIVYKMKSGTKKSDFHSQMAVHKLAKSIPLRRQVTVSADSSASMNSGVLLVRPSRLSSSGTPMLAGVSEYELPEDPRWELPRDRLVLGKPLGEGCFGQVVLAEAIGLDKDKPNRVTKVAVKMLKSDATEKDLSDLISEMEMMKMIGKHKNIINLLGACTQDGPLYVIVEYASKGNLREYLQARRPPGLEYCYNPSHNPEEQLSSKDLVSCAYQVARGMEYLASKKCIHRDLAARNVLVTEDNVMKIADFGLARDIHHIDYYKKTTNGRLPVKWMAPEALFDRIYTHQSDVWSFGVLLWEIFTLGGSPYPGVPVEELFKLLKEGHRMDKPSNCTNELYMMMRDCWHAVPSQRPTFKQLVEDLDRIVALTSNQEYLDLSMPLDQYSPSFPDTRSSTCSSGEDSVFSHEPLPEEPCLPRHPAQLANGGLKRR

Row | Sequence | phosphorylation enrichment
1 | QSSEGYDLGDR [KIAA1210_Y564_G565D] | 0.416
2 | VFSTDYFRVGG [NTRK2_Y706_YF] | 6.21
3 | ALKKPYSVLYK [RPF2_Y59_G60S] | 0.385
4 | ASMAKYFASEI [ACADSB_Y372_YF] | 0.709
5 | FETNVYVDKNL [PTCHD3_Y688_K685T] | 0.436
6 | EPVSDYINANV [PTPN11_Y304_I309V] | 0.541
7 | KHMADYPDFKF [SOX11_Y113_YF] | 0.62
8 | LEQGEYALRSH [HADHB_Y244_D242G] | 0.736
9 | FFRKVYHLASV [RBL1_Y796_YF] | 0.46
10 | REEKNYKHKET [BCLAF1_Y459_L461H] | 0.635
11 | LFNQDYPIHCV [GATM_Y227_S231C_YF] | 4.54
12 | QEIATYRRLLE [KRT14_Y415] | 0.509
13 | QLGLQYSQGLV [EIF2B4_Y214_R209Q] | 0.478
14 | HTDDGYMPMSP [IRS1_Y612] | 1.45
15 | SQPASYQRRLL [PPIG_Y320] | 0.472
16 | NVVNEYSSELE [FGB_Y172] | 0.565
17 | LFEDCYLLGTS [ASS1_Y87_R86C_YF] | 0.895

Row | Sequence | phosphorylation enrichment
18 | RGEAVYSRDCV [XPC_Y676] | 0.718
19 | EEGENYQKGER [CHGB_Y173] | 0.509
20 | TTKGAYSLSVR [YES1_Y194_I198V] | 0.405
21 | ATDLAYFLVRE [ASL_Y375_K380E_YF] | 4.9
22 | GESQGYDIMEA [MSH2_Y863_P868A] | 0.536
23 | DLNATYRTIQG [U2SURP_Y634] | 0.583
24 | FHLGKYLQEVL [KLB_Y910_Y906H_YF] | 0.415
25 | TVSTRYTQPQP [SARG_Y259] | 0.446
26 | PVGVLYEVKVY [PTS_Y128_K129E] | 0.783
27 | LPSKDYAEVGR [HP_Y272] | 0.918
28 | YLEEEYVKAVG [TF_Y674_G671E] | 0.606
29 | SKEPYYVHCIK [MYO1D_Y586_R588H] | 0.77
30 | FRDALYKFMVD [PHEX_Y250_YF] | 0.626
31 | NTGDFCDLFGG [PTPN11_Y63_Y63C_YF] | 0.511
32 | GRSTFYWPSPR [GAGE12J_Y10_R13S_YF] | 0.665
33 | FNSLPYQVPTS [CALCOCO2_Y358] | 0.431

molecular target: SHP2-C SH2; experiment: SH2 binding enrichment of the phosphorylated peptide, bacterial display (enrichment ratio); higher = better substrate or ligand; peptides without Tyr show the background;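 further: peptide library displayed on the E. coli surface as eCPX fusions, selected cells deep-sequenced, score is each peptide's frequency after selection divided by its frequency in the input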

Row | Sequence | SH2 binding enrichment
34 | QSSEGYDLGDR [KIAA1210_Y564_G565D] | 1.26
35 | VFSTDYFRVGG [NTRK2_Y706_YF] | 0.697
36 | ALKKPYSVLYK [RPF2_Y59_G60S] | 1.65
37 | ASMAKYFASEI [ACADSB_Y372_YF] | 0.677
38 | FETNVYVDKNL [PTCHD3_Y688_K685T] | 0.656
39 | EPVSDYINANV [PTPN11_Y304_I309V] | 0.676
40 | KHMADYPDFKF [SOX11_Y113_YF] | 0.719
41 | LEQGEYALRSH [HADHB_Y244_D242G] | 0.788
42 | FFRKVYHLASV [RBL1_Y796_YF] | 0.721
43 | REEKNYKHKET [BCLAF1_Y459_L461H] | 0.46
44 | LFNQDYPIHCV [GATM_Y227_S231C_YF] | 0.806
45 | QEIATYRRLLE [KRT14_Y415] | 0.58
46 | QLGLQYSQGLV [EIF2B4_Y214_R209Q] | 0.721
47 | HTDDGYMPMSP [IRS1_Y612] | 0.882
48 | SQPASYQRRLL [PPIG_Y320] | 0.54
49 | NVVNEYSSELE [FGB_Y172] | 0.463
50 | LFEDCYLLGTS [ASS1_Y87_R86C_YF] | 0.924

Row | Sequence | SH2 binding enrichment
51 | RGEAVYSRDCV [XPC_Y676] | 0.751
52 | EEGENYQKGER [CHGB_Y173] | 0.602
53 | TTKGAYSLSVR [YES1_Y194_I198V] | 0.558
54 | ATDLAYFLVRE [ASL_Y375_K380E_YF] | 1.67
55 | GESQGYDIMEA [MSH2_Y863_P868A] | 0.876
56 | DLNATYRTIQG [U2SURP_Y634] | 0.814
57 | FHLGKYLQEVL [KLB_Y910_Y906H_YF] | 0.935
58 | TVSTRYTQPQP [SARG_Y259] | 1.03
59 | PVGVLYEVKVY [PTS_Y128_K129E] | 0.725
60 | LPSKDYAEVGR [HP_Y272] | 0.717
61 | YLEEEYVKAVG [TF_Y674_G671E] | 0.685
62 | SKEPYYVHCIK [MYO1D_Y586_R588H] | 1.04
63 | FRDALYKFMVD [PHEX_Y250_YF] | 0.956
64 | NTGDFCDLFGG [PTPN11_Y63_Y63C_YF] | 0.823
65 | GRSTFYWPSPR [GAGE12J_Y10_R13S_YF] | 1.64
66 | FNSLPYQVPTS [CALCOCO2_Y358] | 0.871
